IntAct's records for PubMed 16709668

B1: "Peptide-N(4)-(N-acetyl-beta-glucosaminyl)asparagine amidase" (Mus musculus), Q9JI78 (parent)
chain: MASATLGSSSSSASPAVAELCQNTPETFLEASKLLLTYADNILRNPSDEKYRSIRIGNTAFSTRLLPVRGAVECLFEMGFEEGETHLIFPKKASVEQLQKIRDLIAIERSSRLDGSSKKVQFSQHPAAAKLPLEQSEDPAGLIRHSGNQTGQLPSLPSAPMVVGDSTILKVLQSNIQHVQLYENPVLQEKALTCIPVSELKRKAQEKLFRARKLDKGTNVSDEDFLLLELLHWFKEEFFRWVNNIVCSKCGGETRSRDEALLPNDDELKWGAKNVENHYCDACQLSNRFPRYNNPEKLLETRCGRCGEWANCFTLCCRALGFEARYVWDYTDHVWTEVYSPSQQRWLHCDACEDVCDKPLLYEIGWGKKLSYIIAFSKDEVVDVTWRYSCKHDEVMSRRTKVKEELLRETINGLNKQRQLSLSESRRKELLQRIIVELVEFISPKTPRPGELGGRVSGSLAWRVARGETGLERKEILFIPSENEKISKQFHLRYDIVRDRYIRVSDNNINISGWENGVWKMESIFRKVEKDWNMVYLARKEGSSFAYISWKFECGSAGLKVDTVSIRTSSQSFESGSVRWKLRSETAQVNLLGDKNLRSYNDFSGATEVTLEAELSRGDGDVAWQHTQLFRQSLNDSGENGLEIIITFNDL

Variants of: B1
Conditions: with tera_mouse Vcp

Row | effect of a mutation on the interaction | Variant
1 | disrupting interaction | G79A;F80A
2 | disrupting interaction | N41P
